Results on eleven molecules are retold here after patent publication US20170260266A1 (GlaxoSmithKline, published 2017).

In one test the target is T1, human IL-7 (human, UniProt P13232 26-177).
T1 construct: Immobilised on a CM4 chip by primary amine coupling; also called Mature processed human IL-7
T1 sequence: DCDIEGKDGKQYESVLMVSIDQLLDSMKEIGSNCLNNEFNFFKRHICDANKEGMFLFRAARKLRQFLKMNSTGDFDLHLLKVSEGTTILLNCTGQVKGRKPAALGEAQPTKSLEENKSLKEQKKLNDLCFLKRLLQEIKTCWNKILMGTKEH
Put plainly: SPR (Biacore). Background: SPR reads the build-up and loss of mass on a sensor chip optically.

Test [1] concerns the target T2, full length (mature) human TSLP, recombinant (human, UniProt Q969D9 29-159, biotinylated in the SPR assay on the SA chip). The test is described as follows: cell-based or functional assay.
In test [2] the target is T3, native human TSLP (supernatant from stimulated human lung fibroblasts) (human, UniProt Q969D9 29-159). The test is described as follows: cell-based or functional assay.
The target in test [3] is T2, full length (mature) human TSLP, …. Put plainly: cell-based or functional assay. The source holds these as a separate data set.
For test [4], the target named is glycosylated recombinant human TSLP expressed from HEK cells (human, UniProt Q969D9 29-159, glycosylated). The test is described as follows: cell-based or functional assay.
Test [5] deals with T2, full length (mature) human TSLP, …. Put plainly: RBA, geometric mean (n = 2).
The target is the same in test [6]. The test is described as follows: SPR with biotinylated TSLP; mean of two experiments.
Test [7] has as its target T4, short form TSLP (synthetic biotinylated 63 amino acid peptide comprising residues 69-131 of mature full … (human, biotinylated (position not given))).
T4 construct: also called sfTSLP; sf TSLP
Put plainly: ForteBio Octet, biotinylated sfTSLP on streptavidin tips. (In general: BLI is a label-free optical method that tracks binding on a fibre tip over time.)

For test [8], the target named is T2, full length (mature) human TSLP, …. Put plainly: TSLP receptor binding assay (RBA, ELISA, OD 450 nm): dAb titrated against recombinant human TSLP (1 ng/ml); blocked is the binding of TSLP to the plate-coated TSLP receptor complex. For orientation: ELISA stands for enzyme-linked immunosorbent assay.
Test [9] deals with T3, native human TSLP (supernatant from …). The test is described as follows: TSLP receptor binding assay (RBA, ELISA, OD 450 nm): dAb titrated against native human TSLP (supernatant of stimulated human lung fibroblasts); blocked is the binding of TSLP to the plate-coated TSLP receptor complex.
The target in test [10] is T2, full length (mature) human TSLP, …. Put plainly: cell-based or functional assay. The source holds these as a separate data set.
For test [11] the target is unchanged. The test is described as follows: ELISA RBA, geometric mean.
Test [12] has the same target. Put plainly: SPR, biotinylated TSLP on SA chip (Biacore 4000).
For test [13] the target is unchanged. Put plainly: SPR, biotinylated TSLP on SA chip; all concentrations (footnote 1).
Test [14] has the same target. The test is described as follows: SPR, biotinylated TSLP on SA chip; value excluding 1000 nM concentration.

Substitutions are numbered along the chain they refer to. Several values for one entry are separate records, joined by “and”; a condition that tells them apart may be missing. Equal entries are not always repeated.

T4 sequence (peptide, as listed by the source): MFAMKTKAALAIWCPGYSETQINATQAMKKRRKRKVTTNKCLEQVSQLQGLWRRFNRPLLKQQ

B1: DOM30h-440-81/86 (other)
VL: DIQMTQSPSSLSASVGDRVTITCRASRPIRNWLDWYQQKPGKAPKLLIWGASHLQSGVPSRFSGSGSGTDFTLTISSLQPEDFATYYCVQIGEDPVTFGQGTKVEIK
notes: Vk single variable domain (dAb); DOM30h-440-55 with the C-terminal R removed (-R); also called DOM30h-440-86; TSLP dAb
As for B1, the binding result in the test with human IL-7 is on record as “no binding”. Also, the “IL-5 production from human PBMC stimulated with a mixture of TSLP, IL-33 and IL-25, Geometric Mean IC50” value in [1] was 129 nM. Further, the “native TSLP-induced STAT5 phosphorylation in SW756 cells, Geometric Mean IC50” value in [2] was determined as 0.86 nM. In test [3], the “Inhibition of TSLP-induced TARC in whole blood, Geometric Mean IC50 (n = 7)” value stood at 2.4 nM and the “Inhibition of TSLP-induced pSTAT5 in SW756 cells, Geometric Mean IC50 (n = 5)” value was determined as 1.92 nM. In test [4], the “Inhibition of TSLP-induced TARC in whole blood, Geometric Mean IC50 (n = 6)” value was found to be 3.1 nM and the “Inhibition of TSLP-induced pSTAT5 in SW756 cells, Geometric Mean IC50 (n = 3)” value worked out at 0.55 nM. The IC50 (as a rule, the midpoint of a concentration-inhibition curve) in [5] was 1.94 nM. For the same molecule, in test [6], the Kd (usually the constant that tells how readily two partners part at equilibrium) is 0.867 nM and 0.87 nM; the koff (in general, the rate constant with which the complex falls apart) stood at 0.000508 s⁻¹; the kon (commonly a measure of how fast the partners come together) was 619000 M⁻¹ s⁻¹. Also, in [7], the binding result is recorded as “no binding”. For the same molecule, in [8], the “IC50 (read off the curve)” value is ~4 nM. The “IC50 (read off the curve)” value in test [9] was ~0.1 nM.

B2: DOM30h-440-65 (other)
VL: DIQMTQSPSSLSASVGDRVTITCRASRPIRNWLDWYQQKPGKAPKLLIWGASHLQSGVPSRFSGSGSGTDFTLTISSLQPEDFATYYCMQIGEDPVTFGQGTKVEIKR
Regarding B2, the “pSTAT5 assay in SW756 cells, Geometric Mean IC50” value (from here on “pSTAT5 assay in SW756 cells”) in [10] is 0.78 nM. In test [11], the concentration for half-maximal inhibition (IC50) was determined as 0.69 nM. Besides, the equilibrium dissociation constant (Kd) in test [12] turned out to be 3.84 nM.

B3: DOM30h-440-53 (other)
VL: B2 VL with M89L, I91V
For B3, in [10], the “pSTAT5 assay in SW756 cells” value came out at 1.92 nM. For the same molecule, the IC50 in [11] is 2 nM. In addition, in test [12], the Kd came to 3.05 nM.

B4: DOM30h-440-55 (other)
VL: B2 VL with M89V
Regarding B4, the “pSTAT5 assay in SW756 cells” value in test [10] amounted to 1.1 nM. For the same molecule, in test [11], the IC50 was determined as 0.87 nM. In addition, the Kd in test [12] was determined as 2.78 nM.

B5: DOM30h-440-57 (other)
VL: B2 VL with K45E, E93D
With B5, the “pSTAT5 assay in SW756 cells” value in test [10] is 0.56 nM. Further, the concentration for half-maximal inhibition (IC50) in test [11] is 0.34 nM. Besides, the Kd was determined as 3.48 nM in [13] and 1.5 nM in test [14].

B6: DOM30h-440-56 (other)
VL: B2 VL with I75V
For the molecule B6, in test [10], the “pSTAT5 assay in SW756 cells” value worked out at 0.99 nM. Besides, in [11], the IC50 came to 0.56 nM. Also, in test [12], the Kd came to 2.47 nM.

B7: DOM30h-440-54 (other)
VL: B2 VL with M89W, I91L, G92A, E93F, V96T
With B7, the “pSTAT5 assay in SW756 cells” value in [10] is 1.52 nM. Besides, the IC50 in test [11] is 2.15 nM. Moreover, the Kd in [12] came out at 3.82 nM.

B8: DOM30h-440-58 (other)
VL: B2 VL with M89L, G92A, E93D
As for B8, in test [10], the “pSTAT5 assay in SW756 cells” value stood at 1.91 nM. In addition, the IC50 in [11] is 1.41 nM. The Kd in test [12] stood at 2.65 nM.

B9: DOM30h-440-60 (other)
VL: B2 VL with M89I, I91F
On to B9, for which the “pSTAT5 assay in SW756 cells” value in test [10] was determined as 0.7 nM. Moreover, the IC50 in test [11] is 0.32 nM. Moreover, the Kd in test [12] amounted to 0.14 nM.

B10: DOM30h-440-63 (other)
VL: B2 VL with E93S
Turning to B10, the “pSTAT5 assay in SW756 cells” value in test [10] worked out at 2.21 nM. The IC50 in test [11] is 1.55 nM. The Kd in [12] was 4.22 nM.

B11: DOM30h-440-64 (other)
VL: B2 VL with M89L
B11: the “pSTAT5 assay in SW756 cells” value in test [10] turned out to be 3.26 nM. For the same molecule, the IC50 in test [11] turned out to be 0.95 nM. For the same molecule, in [12], the Kd came out at 6.17 nM.
